Publication PMC10338669

Target: aSyn-MFP (alpha-synuclein with C-terminal MFP/mMaroon1, single-fusion acceptor) (UniProt P37840)
Assay: FRET or BRET

FRET efficiency E (Ex 473 nm): 0.266 | FRET efficiency E (Ex 532 nm): 0.229
Substance: O-aSyn (alpha-synuclein with N-terminal OFP/mCyRFP1, single-fusion donor) (from UniProt P37840 1-140) (natural protein)
